Data from US20250084158A1 (ABL BIO, published 2025).

B1: 33C2/CD3-R3 (bispecific antibody, human IgG1, kappa, N297A)
heavy 1: not shown
heavy 2: QVQLVQSGAEVKKPGASVKVSCKASGYSFTGYAMNWVRQAPGQRLEWIGLINPYNGGAMYNQKFKGRATLTVDTSASTAYMELSSLRSEDTAVYYCARDYRYEGHLDYWGQGTLVTVSSASTKGPSVFPLAPSSKSTSGGTAALGCLVKDYFPEPVTVSWNSGALTSGVHTFPAVLQSSGLYSLSSVVTVPSSSLGTQTYICNVNHKPSNTKVDKKVEPKSCDKTHTCPPCPAPELLGGPSVFLFPPKPKDTLMISRTPEVTCVVVDVSHEDPEVKFNWYVDGVEVHNAKTKPREEQYASTYRVVSVLTVLHQDWLNGKEYKCKVSNKALPAPIEKTISKAKGQPREPQVCTLPPSREEMTKNQVSLSCAVKGFYPSDIAVEWESNGQPENNYKTTPPVLDSDGSFFLVSKLTVDKSRWQQGNVFSCSVMHEALHNHYTQKSLSLSPGK
light 1: EIVLTQSPATLSLSPGERATLSCSATSSVSYMHWYQQKPGQAPRRWIYDTSKLASGIPARFSGSGSGTSYTLTISSLEPEDFAVYYCQQWSSDSPTFGQGTKLEIKRTVAAPSVFIFPPSDEQLKSGTASVVCLLNNFYPREAKVQWKVDNALQSGNSQESVTEQDSKDSTYSLSSTLTLSKADYEKHKVYACEVTHQGLSSPVTKSFNRGEC
light 2: DIVMTQSPDSLAVSLGERATINCKSSQSLLNSRTRKNYLAWYQQKPGQPPKLLIYWASTRQSGVPDRFSGSGSGTDFTLTISSLQAEDVAVYYCTQSHTLRTFGGGTKVEIKPDIQNPDPAVYQLRDSKSSDKSVCLFTDFDSQTQVSQSKDSDVYITDKCVLDMRSMDFKSNSAVAWSQKSDFACANAFQNSIIPEDTFFPSPESS
notes: As 33C2/CD3-R2 but with the (G4S)3 linker; also called anti-CLL-1/anti-CD3 bispecific antibody with (G4S)3 linker
B2: 33C2/CD3-R2 (bispecific antibody, human IgG1, kappa, N297A)
heavy 1: not shown
heavy 2: B1 heavy 2
light 1: B1 light 1
light 2: B1 light 2
notes: WuXiBody format, 2+1: Heavy Chain-1 = CLL1 Fab heavy, linker, CD3 heavy (TCR constant region), Fc knob; Heavy Chain-2 = CLL1 Fab heavy, Fc hole; Two CLL1 light chains follow from the two CLL1 Fab heavy parts; also called anti-CLL-1/anti-CD3 bispecific antibody with (G4S)2 linker

How the values were obtained:
human CLL-1 on cells [1] = target: T1, human CLL-1 on cells (human, UniProt Q5QGZ9 1-265); test: FACS (PE-anti-human IgG), U937 cells
T1 construct: whole, on cells; Overexpressed in HEK293E cells or carried by CLL1-expressing leukemic cell lines; the cell line is named under assay or readout; also called CLEC12A; huCLL1_293E
T1 sequence (looked up): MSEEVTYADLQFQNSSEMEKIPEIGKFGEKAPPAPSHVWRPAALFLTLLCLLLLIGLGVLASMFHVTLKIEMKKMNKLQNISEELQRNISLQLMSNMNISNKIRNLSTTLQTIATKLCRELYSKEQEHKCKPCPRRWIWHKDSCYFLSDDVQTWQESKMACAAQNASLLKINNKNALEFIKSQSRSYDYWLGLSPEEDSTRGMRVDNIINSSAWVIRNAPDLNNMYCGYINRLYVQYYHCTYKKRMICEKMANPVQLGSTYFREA
Procedure: (§1) To evaluate the tumor antigen binding property of the bispecific antibody of Example 3, the binding ability of CLL1 targeting portions of 33C2/CD3-R2 and 33C2/CD3-R3 to CLL1 expressed in mammalian cells were analyzed by using FACS.
(§2) Briefly, CLL1 positive cells (U937 and HL60) were incubated with 33C2/CD3-R2 and 33C2/CD3-R3 antibodies. After washing with a FACS buffer (1% BSA in PBS), the PE-anti-human IgG antibodies were added to each well and incubated at 4° C. for 60 min. The MFI (Median Fluorescence Intensity) of PE (phycoerythrin) was evaluated by FACS Calibur. BsAb mock/CD3, which has an anti-CD3 antigen-binding fragment at one arm, and no antigen-binding fragment at another arm, was used as a control group.

human CLL-1 on cells [2] = target: T1, human CLL-1 on cells; test: cell-based or functional assay
human CLL-1 on cells [3] = target: T1, human CLL-1 on cells; test: cell-based or functional assay; remark: listed apart in the source
human CLL-1 on cells [4] = target: T1, human CLL-1 on cells; test: cell-based or functional assay; remark: listed apart in the source
human CLL-1 on cells [5] = target: T1, human CLL-1 on cells; test: FACS (PE-anti-human IgG), HL-60 cells
Procedure: as §1, §2

human CLL-1 on cells [6] = target: T1, human CLL-1 on cells; test: cell-based or functional assay; remark: listed apart in the source

EC50 (human CLL-1 on cells [1]) [pM] | CD25 on CD4 T cells, U937 targets, EC50 (human CLL-1 on cells [2]) [pM] | CD25 on CD8 T cells, U937 targets, EC50 (human CLL-1 on cells [2]) [pM] | CD69 on CD4 T cells, U937 targets, EC50 (human CLL-1 on cells [2]) [pM] | CD69 on CD8 T cells, U937 targets, EC50 (human CLL-1 on cells [2]) [pM] | U937 cell lysis, EC50 (human CLL-1 on cells [2]) [pM] | T-cell activation (NFAT reporter effector cells) with HL-60, EC50 (human CLL-1 on cells [3]) [pM] | T-cell activation (NFAT reporter effector cells) with U937, EC50 (human CLL-1 on cells [3]) [pM] | specific lysis of HL-60, PBMC donor ABL06, EC50 (human CLL-1 on cells [4]) [pM] | specific lysis of HL-60, PBMC donor ABL09, EC50 (human CLL-1 on cells [4]) [pM] | specific lysis of HL-60, PBMC donor ABL10, EC50 (human CLL-1 on cells [4]) [pM] | specific lysis of HL-60, PBMC donor ABL15, EC50 (human CLL-1 on cells [4]) [pM] | specific lysis of HL-60, PBMC donor ABL16, EC50 (human CLL-1 on cells [4]) [pM] | specific lysis of HL-60, PBMC donor ABL17, EC50 (human CLL-1 on cells [4]) [pM] | specific lysis of HL-60, PBMC donor ABL18, EC50 (human CLL-1 on cells [4]) [pM] | specific lysis of HL-60, PBMC donor ABL19, EC50 (human CLL-1 on cells [4]) [pM] | specific lysis of U937, PBMC donor ABL06, EC50 (human CLL-1 on cells [4]) [pM] | specific lysis of U937, PBMC donor ABL09, EC50 (human CLL-1 on cells [4]) [pM] | specific lysis of U937, PBMC donor ABL10, EC50 (human CLL-1 on cells [4]) [pM] | specific lysis of U937, PBMC donor ABL15, EC50 (human CLL-1 on cells [4]) [pM] | also measured | Binder
250 | 1.23 | 1.1 | 0.61 | ~0.5 | 0.15 | 40 | 16 | 5.07 | 1.26 | 0.97 | 3.04 | 7.01 | 16.6 | 9.43 | 8.18 | 0.57 | 0.08 | 0.15 | 0.04 | specific lysis of U937, PBMC donor ABL16, EC50 (human CLL-1 on cells [4]): 0.03 pM; specific lysis of U937, PBMC donor ABL17, EC50 (human CLL-1 on cells [4]): 1.69 pM; specific lysis of U937, PBMC donor ABL18, EC50 (human CLL-1 on cells [4]): 3.05 pM; specific lysis of U937, PBMC donor ABL19, EC50 (human CLL-1 on cells [4]): 0.39 pM; EC50 (human CLL-1 on cells [5]): 90 pM; CD25 on CD4 T cells, HL60 targets, EC50 (human CLL-1 on cells [6]): 1.94 pM; CD25 on CD8 T cells, HL60 targets, EC50 (human CLL-1 on cells [6]): 2.09 pM; CD69 on CD4 T cells, HL60 targets, EC50 (human CLL-1 on cells [6]): 0.8 pM; CD69 on CD8 T cells, HL60 targets, EC50 (human CLL-1 on cells [6]): 0.57 pM; U937 cell lysis (so in the source); Table 21 is the HL60 table by paragraph 356), EC50 (human CLL-1 on cells [6]): 0.97 pM | B1
230 | 0.39 | 0.3 | 0.21 | 0.14 | 0.05 | 30 | 16 | 4.42 | 1.27 | 0.86 | 3.16 | 5.14 | 5.85 | 3.97 | 9.09 | 0.54 | 0.13 | 0.05 | 0.16 | specific lysis of U937, PBMC donor ABL16, EC50 (human CLL-1 on cells [4]): 0.05 pM; specific lysis of U937, PBMC donor ABL17, EC50 (human CLL-1 on cells [4]): 1.1 pM; specific lysis of U937, PBMC donor ABL18, EC50 (human CLL-1 on cells [4]): 1.63 pM; specific lysis of U937, PBMC donor ABL19, EC50 (human CLL-1 on cells [4]): 0.32 pM; EC50 (human CLL-1 on cells [5]): 90 pM; CD25 on CD4 T cells, HL60 targets, EC50 (human CLL-1 on cells [6]): 1.15 pM; CD25 on CD8 T cells, HL60 targets, EC50 (human CLL-1 on cells [6]): 1.09 pM; CD69 on CD4 T cells, HL60 targets, EC50 (human CLL-1 on cells [6]): 0.54 pM; CD69 on CD8 T cells, HL60 targets, EC50 (human CLL-1 on cells [6]): 0.36 pM; U937 cell lysis (so in the source); Table 21 is the HL60 table by paragraph 356), EC50 (human CLL-1 on cells [6]): 0.86 pM | B2
